Test results published in patent publication US20260125476A1 (INTERVET, published 2026).
Substitutions are numbered along the chain they refer to.

B1: Mouse-canine chimeric antibody 22A11 (antibody, V domains shown)
VH: QVQLQQPGTELVKPGASVKLSCKASGYTFTSYWMHWVKQRPGQGLEWIGNINPSNGGTRFNEKFKNKATLTEDKSSSTAYMQLSSLTSEDSAVYYCARSNYGSGWAWFAYWGQGTLVTVSA
VL: DIQMNQSPSSLSASLGDTITITCHASQNINVWLSWYQQKPGNIPKLLIYKSSNLHTGVPSRFSGSGSGTGFTLTISSLQPEDIATYYCQQGQSYPWTFGGGTKLEIKR
notes: Mouse variable regions fused to canine constant heavy chain and canine kappa; HEK 293, protein A
B2: Mouse-canine chimeric antibody 27G12 (antibody, V domains shown)
VH: QIQLVQSGPELKKPGETVKISCKASGYTFTTYGVSWVKQAPGKGLRWMGWINTYSGMPTYVDDFKGRFAFSLETSASTAFLQINNLKNEDTAIYFCARRGISFDYWGQGTTLTVSS
VL: DVLMTQTPLSLPVSLGDHASISCKSSQSIVYINGNTYLEWYLQKPGQSPKLLIYKVSKRFSGVPDRFSGSGSGTDFTLKISRVEAEDLGVYYCFQGSHVPWTFGGGTKLEIKR
notes: as for B1
B3: Mouse-canine chimeric antibody 12B3 (antibody, V domains shown)
VH: QIQLVQSGPELKKPGETVKISCKASGYTFTNYGMNWVKQAPGKGLKWMGWINTYTGEPTYADDFKGRFAFSLETSASTAYLQINNLKNEDMATYFCARRSIYYPYWGQGTTLTVSS
VL: B2 VL with H18Q, K24R, I32S, K58N
notes: expressed in HEK 293 cells, purified on protein A; also called chimera of 12B3
B4: Mouse-canine chimeric antibody 45A9 (antibody, V domains shown)
VH: B3 VH with M91T, S100G, I101T, P104R, Y105P
VL: B2 VL with H18Q, K24R, I32S, N33H, L51V, K58N
notes: as for B1
B5: Mouse-canine chimeric antibody 110E3 (antibody, V domains shown)
VH: B3 VH with F68V, Y80F, M91T, S100G, I101V, Y102R, Y103L, P104D
VL: B2 VL with H18Q, K24R, N33S, N35S, K58S
notes: as for B1
B6: Mouse-canine chimeric antibody 39A11 (antibody, V domains shown)
VH: EVKLVESGGGLVQPGGSLSLSCATSGFTFSDYYMSWVRQSPGKALEWMGFIRNKANGYTTEYSASLKGRFTISRDNSQSILYLQMNVLRAEDSATYYCVRFGLMYYFDYWGQGTTLTVSS
VL: ENVLIQSPAIMSASPGEKVTMTCRASSSVSSSYLHWYQQKSGASPKLWIFSTSNLASGVPARFSGSGSGTSYSLTINSVEAEDAATYYCQQYSGLPLTFGGGTKLEIKR
notes: Mouse variable regions fused to canine constant heavy chain and canine kappa; HEK 293, protein A; also called chimera of 39A11
B7: Caninized c12B3L3H3 (antibody, V domains shown)
VH: EIQLVQSGGDLVKPGGSVRLSCKASGYTFTNYGMNWVKQAPGKGLQWMGWINTYTGEPTYADDFKGRFTFSLDNAKNTAYLQINSLRAEDTAVYFCARRSIYYPYWGQGTTLTVSS
VL: DVLMTQTPLSLSVSPGEPASISCRSSQSIVYSNGNTYLEWYLQKPGQSPKLLIYKVSNRFSGVPDRFSGSGSGTDFTLRISRVEADDAGVYYCFQGSHVPWTFGGGTKLELKR
notes: also called caninized 12B3 VL3/VH3
B8: Caninized c12B3L2H3 (antibody, V domains shown)
VH: B7 VH
VL: B7 VL with V2I, L3V, L42Q, L111I
notes: also called caninized 12B3
B9: Caninized c39A11L3H3 (antibody, V domains shown)
VH: EVKLVESGGDLVKPGGSLRLSCATSGFTFSDYYMSWVRQAPGKALEWMGFIRNKANGYTTEYSASLKGRFTISRDNAKNMLYLQMNSLRAEDTAVYYCVRFGLMYYFDYWGQGTTLTVSS
VL: ENVLTQSPASLSLSPGEKVTITCRASSSVSSSYLHWYQQKPGQSPKLWIFSTSNLASGVPSRFSGSGSGTSYSFTISSLEPEDVAVYYCQQYSGLPLTFGGGTKLELKR
notes: also called caninized 39A11 VL3/VH3
B10: Caninized c39A11L2H3 (antibody, V domains shown)
VH: B9 VH
VL: B9 VL with P15Q, G16E, S44A, S71D
notes: written here as L2H3; also called caninized 39A11

Molecular target: T1, canine CTLA-4 (cCTLA-4) recombinant protein (canine, UniProt Q9XSI1 38-161, limits assumed)
T1 construct: also called canine Cytotoxic T-Lymphocyte-Associated protein 4; CD152
T1 chain: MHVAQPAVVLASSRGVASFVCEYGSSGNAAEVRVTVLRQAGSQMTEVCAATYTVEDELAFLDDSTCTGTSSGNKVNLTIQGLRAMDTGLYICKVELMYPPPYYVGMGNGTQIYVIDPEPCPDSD
Assay: blocking ELISA: cCTLA-4 coated at 200 ng/well, antibody dilutions mixed with 100 ng/well biotinylated canine CD80 (the blocked ligand), streptavidin-HRP, OD450/540 (Example 4)
Experimental: (§1) Coat 200 ng/well cCTLA-4 in an immunoplate and incubate the plate at 4° C. overnight. […] Wash the plate 3 times by PBS with 0.05% Tween 20 (PBST). […] Block the plate with 0.5% BSA in PBS for 45-60 min at room temperature. […] Wash the plate 3 times by PBST. […] Next mixed with the antibodies. […] Transferred the mixture into each column or row of the immunoplate, and incubated the plate for 45-60 min at room temperature. […] Washed the plate 3 times with PBST. […] Added 1:2000 diluted horseradish peroxidase conjugated streptavidin into each well of the plate, and incubated the plate for 45-60 min at room temperature. […] Washed the plate 3 times with PBST. […] Added the TMB Substrate into each well of the plate, and incubated the plate for 10 to 15 minutes at room temperature to allow for color development. […] Added 100 μL of 1.5 M phosphoric acid into each well to stop the reaction. […] Read the plate at 450 nm with 540 nm reference wavelength.

Binder	IC50 (read off the curve)
B1	~0.2 µg/mL
B2	~0.2 µg/mL
B3	~0.1 µg/mL
B4	~0.2 µg/mL
B5	~0.2 µg/mL
B6	~0.2 µg/mL

Molecular target: T2, canine CTLA-4 expressed on CHO-K1 cells (canine, UniProt Q9XSI1 38-223)
T2 construct: also called CHO-cCTLA-4; CHO-K1-cCTLA-4 cells
T2 chain: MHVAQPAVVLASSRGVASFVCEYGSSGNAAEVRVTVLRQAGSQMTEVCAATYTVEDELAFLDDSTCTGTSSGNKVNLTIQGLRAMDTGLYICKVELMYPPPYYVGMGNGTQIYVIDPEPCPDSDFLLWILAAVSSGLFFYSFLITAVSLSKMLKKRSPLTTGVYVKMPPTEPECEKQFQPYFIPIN
Assay: flow cytometry on CHO-K1 cells stably expressing cCTLA-4, labelled anti-canine IgG, FL4-H histogram (Example 5); antibody concentration not given

Binder	binding result
B3	binds

Molecular target: T1, canine CTLA-4 (cCTLA-4) recombinant …
Assay: ELISA on coated cCTLA-4, OD450/540 ('xCTLA4 ELISA', Example 7)

Binder	EC50 (read off the curve)
B7	~0.002 µg/mL
B8	~0.002 µg/mL
B3	~0.001 µg/mL
B9	~0.004 µg/mL
B10	~0.007 µg/mL
B6	~0.004 µg/mL

Molecular target: T1, canine CTLA-4 (cCTLA-4) recombinant …
Assay: blocking ELISA: cCTLA-4 coated at 200 ng/well, antibody dilutions mixed with 100 ng/well biotinylated canine CD86 (the blocked ligand), streptavidin-HRP, OD450/540 (Example 4)
Experimental: as §1

Binder	IC50 (read off the curve)
B1	~0.3 µg/mL
B2	~0.1 µg/mL
B3	~0.1 µg/mL
B4	~0.1 µg/mL
B5	~0.1 µg/mL
B6	~0.1 µg/mL

Molecular target: T1, canine CTLA-4 (cCTLA-4) recombinant …
Assay: ELISA: cCTLA-4 coated at 200 ng/well, three-fold antibody dilutions, HRP anti-canine IgG Fc, OD450/540 (Example 3)

Binder	EC50 (read off the curve)
B1	~0.0007 µg/mL
B2	~0.002 µg/mL
B3	~0.005 µg/mL
B4	~0.002 µg/mL
B5	~0.002 µg/mL
B6	~0.009 µg/mL

Molecular target: T2, canine CTLA-4 expressed on CHO-K1 cells
Assay: flow cytometry on CHO-K1 cells stably expressing cCTLA-4, labelled anti-canine IgG, FL4-H histogram (Example 5); antibody concentration not given
Remark: another data set of the same source

Binder	binding result
B2	binds

Molecular target: T2, canine CTLA-4 expressed on CHO-K1 cells
Assay: as above
Remark: another data set of the same source
Text: (§2) A CHO-K1 cell line stably expressing cCTLA-4 was generated. The cells were used to test antibody binding and blocking activity in FACS flow assay. […] Grew CHO-K1-cCTLA-4 cells in the culture medium in T-75 flask. The cells are passaged when the cell confluency reaches to 90%. […] Detached the cells by Trypsin-EDTA solution, resuspended the cells in culture medium, and counted the viable cells with more than 95% viability. […] Spun down the cells, aspirated the supernatant, then resuspended the cells into FACS buffer (Thermo Fisher Scientific, Cat #BDB554656) to 1×10⁷ cells/mL. […] Added antibody into 100 μL of the cells, incubated at room temperature for 30 min with gentle shaking. […] Washed the cells by 3×250 μL of FACS buffer, and resuspended the cells into 100 μL FACS buffer. […] Stained the cells with FITC conjugated anti-canine IgG, incubated at room temperature for 30 min with gentle shaking. […] Washed the cells with 3×250 μL of FACS buffer and resuspended the cells into 500 μL FACS buffer. […] Read 10,000 cells by flow cytometry.

Binder	binding result
B5	binds

Molecular target: T2, canine CTLA-4 expressed on CHO-K1 cells
Assay: as above
Remark: another data set of the same source
Text: as §2

Binder	binding result
B1	binds
